± gives the uncertainty stated by the source.
Assay: self-splicing fitness, log relative to wild type (ln ratio); higher = more splicing; Tetrahymena group I intron in knt gene, E. coli kanamycin selection, DiMSum; sequences stand for … in CUCUCU…GGAGGGAAAAGUUAUCAGGCAUGCACCUGGUAGCUAGUCUUUAAACCAAUAGAUUGCAUCGGUUUAAAAGGCAAGACCGUCAAAUUGCGGGAAAGGGGUCAACAGCCGUUCAGUACCAAGUCUCAGGGGAAACUUUGAGAUGGCCUUGCAAAGGGUAUGGUAAUAAGCUGACGGACAUGGUCCUAACCACGCAGCCAAGUCCUAAGUCAACAGAUCUUCUGUUGAUAUGGAUGCAGUUCACAGACUAAAUGUCGGUCGGGGAAGAUGUAUUCUUCUCAUAAGAUAUAGUCGGACCUCUCCUUAAUGGGAGCUAGCGGAUGAAGUGAUGCAACACUGGAGCCGCUGGGAACUAAUUUGUAUGCGAAAGUAUAUUGAUUAGUUUUGGAGUACUCGUGGUCG
Procedure, shortened: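 DiMSum derived fitness as the error-weighted combination of fold changes across replicates, kanamycin versus no kanamycin, normalised to wild type. E. coli BL21(DE3) held the library, which randomised all eight P1ex-region intron nucleotides within the knt kanamycin-resistance gene on pET-22b(+). Six replicate transformations grew overnight at 37°C or 30°C on LB agar with or without 25 μg/mL kanamycin, also containing 100 μg/mL carbenicillin, 50 μM IPTG and 0.2% rhamnose, and pooled colonies were amplicon-sequenced on an Illumina HiSeq 2500.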

Sequence	self-splicing fitness (ln) (30 °C)	self-splicing fitness (ln) (37 °C)
UUGAAGCAAUAUUACGGGUC	-3.77 ± 0.25	-1.71 ± 0.25
UUGAAGCAAUAUUACGUAAG	-0.735 ± 0.083	0.223 ± 0.12
UUGAAGCAAUAUUACGUACG	-0.166 ± 0.053	0.427 ± 0.074
UUGAAGCAAUAUUACGUAUU	-2.69 ± 0.12	-0.933 ± 0.12
UUGAAGCAAUAUUACGUCAG	0.252 ± 0.076	0.934 ± 0.11
UUGAAGCAAUAUUACGUUCG	-0.397 ± 0.065	0.0406 ± 0.088
UUGAAGCAAUAUUACGUUUG	-1.6 ± 0.12	-0.811 ± 0.19
UUGCAGCAAUAUUACGAACC	-1.76 ± 0.45	–
UUGCAGCAAUAUUACGACCC	–	-0.535 ± 0.4
UUGCAGCAAUAUUACGACUC	-1.2 ± 0.11	-0.0756 ± 0.12
UUGCAGCAAUAUUACGAGCU	-2.6 ± 0.1	-1.37 ± 0.11
UUGCAGCAAUAUUACGAGGC	-3.55 ± 0.23	-2.07 ± 0.22
UUGCAGCAAUAUUACGAUAG	-0.692 ± 0.079	0.225 ± 0.11
UUGCAGCAAUAUUACGAUCA	-1.37 ± 0.12	-0.0311 ± 0.11
UUGCAGCAAUAUUACGAUGC	-3.16 ± 0.46	-1.54 ± 0.45
UUGCAGCAAUAUUACGCAAG	-1.92 ± 0.16	-2.89 ± 0.36
UUGCAGCAAUAUUACGCAUC	-3.11 ± 0.22	-3.18 ± 0.33
UUGCAGCAAUAUUACGCCCA	-1.28 ± 0.21	-0.155 ± 0.25
UUGCAGCAAUAUUACGCCUU	-0.0132 ± 0.081	0.15 ± 0.11
UUGCAGCAAUAUUACGCGAU	-2.02 ± 0.29	-2.6 ± 0.36
UUGCAGCAAUAUUACGCGUA	-0.889 ± 0.13	-0.457 ± 0.11
UUGCAGCAAUAUUACGCUAU	-2.99 ± 0.25	-1.16 ± 0.17

Sequence	self-splicing fitness (ln) (30 °C)	self-splicing fitness (ln) (37 °C)
UUGCAGCAAUAUUACGCUCU	-1.01 ± 0.12	-0.306 ± 0.13
UUGCAGCAAUAUUACGCUUA	-0.263 ± 0.12	-0.0443 ± 0.13
UUGCAGCAAUAUUACGGCGU	-0.34 ± 0.051	0.352 ± 0.065
UUGCAGCAAUAUUACGGGGA	-1.37 ± 0.13	-0.636 ± 0.12
UUGCAGCAAUAUUACGGGGC	-3.99 ± 0.2	-2.35 ± 0.2
UUGCAGCAAUAUUACGGUAG	-0.823 ± 0.057	-0.064 ± 0.07
UUGCAGCAAUAUUACGUAAA	-1.25 ± 0.095	-0.427 ± 0.12
UUGCAGCAAUAUUACGUACA	0.118 ± 0.11	-0.0402 ± 0.13
UUGCAGCAAUAUUACGUACU	-1.36 ± 0.12	-0.848 ± 0.12
UUGCAGCAAUAUUACGUAGC	-2.96 ± 0.3	–
UUGCAGCAAUAUUACGUCUC	-1.21 ± 0.12	-0.311 ± 0.16
UUGCAGCAAUAUUACGUGAU	-3.85 ± 0.2	-2.06 ± 0.17
UUGCAGCAAUAUUACGUGGA	-2.52 ± 0.18	-1.27 ± 0.13
UUGCAGCAAUAUUACGUUCC	–	-2.16 ± 0.27
UUGCAGCAAUAUUACGUUUU	-3.97 ± 0.22	-1.85 ± 0.13
UUGGAGCAAUAUUACGAACG	–	-0.295 ± 0.28
UUGGAGCAAUAUUACGACAU	-1.81 ± 0.02	-1.04 ± 0.036
UUGGAGCAAUAUUACGAUGG	-1.53 ± 0.21	-1.54 ± 0.21
UUGGAGCAAUAUUACGCAGG	-2.96 ± 0.28	-1.99 ± 0.33
UUGGAGCAAUAUUACGCGUG	-3.03 ± 0.18	-0.323 ± 0.087
UUGGAGCAAUAUUACGGAUG	-3.54 ± 0.34	-2.12 ± 0.4
UUGGAGCAAUAUUACGGCGA	-1.32 ± 0.48	–

Sequence	self-splicing fitness (ln) (30 °C)	self-splicing fitness (ln) (37 °C)
UUGGAGCAAUAUUACGGUAG	-3.58 ± 0.2	-1.99 ± 0.18
UUGGAGCAAUAUUACGUCGA	-2.6 ± 0.3	0.049 ± 0.27
UUGGAGCAAUAUUACGUGGU	-2.84 ± 0.36	-2.56 ± 0.32
UUGGAGCAAUAUUACGUGUA	-3.69 ± 0.29	–
UUGGAGCAAUAUUACGUUAU	-2.79 ± 0.28	-0.885 ± 0.26
UUGUAGCAAUAUUACGACAG	-0.234 ± 0.21	-0.137 ± 0.25
UUGUAGCAAUAUUACGAUAA	-1.44 ± 0.11	-0.33 ± 0.17
UUGUAGCAAUAUUACGAUGA	-0.47 ± 0.13	0.0216 ± 0.12
UUGUAGCAAUAUUACGAUGU	-3.86 ± 0.29	-0.334 ± 0.12
UUGUAGCAAUAUUACGAUUC	-3.76 ± 0.34	-3.2 ± 0.3
UUGUAGCAAUAUUACGCGUC	-3.51 ± 0.42	-0.917 ± 0.26
UUGUAGCAAUAUUACGCUCA	-1.27 ± 0.14	0.0359 ± 0.18
UUGUAGCAAUAUUACGCUCC	-2.12 ± 0.43	–
UUGUAGCAAUAUUACGGAAG	-3.94 ± 0.33	-1.7 ± 0.36
UUGUAGCAAUAUUACGGAUA	-2.68 ± 0.24	-1.42 ± 0.23
UUGUAGCAAUAUUACGGGGG	-2.82 ± 0.41	–
UUGUAGCAAUAUUACGGUAA	-1.2 ± 0.16	-0.727 ± 0.13
UUGUAGCAAUAUUACGGUAU	-0.659 ± 0.35	–
UUGUAGCAAUAUUACGGUGG	-1.75 ± 0.12	-1.28 ± 0.17
UUGUAGCAAUAUUACGUAAC	–	-2.12 ± 0.43
